# Laboratory results: patent US20250043302A1, “MUTATED HYDROXYPHENYLPYRUVATE DIOXYGENASE POLYPEPTIDE, AND CODING GENE AND USE THEREOF” (BEIJING DABEINONG BIOTECHNOLOGY CO., LTD., priority 2021, published 2025)
# Key:
# [1] = test system: Arabidopsis thaliana T1 plants; experiment: Topramezone tolerance of transgenic Arabidopsis thaliana T1 plants (spray, bleached leaf area grade, damage score); assay type: in vivo; conditions: for Classification and statistics of the grade of pesticide damage Grade 0: number of plants at grade 0; for Classification and statistics of the grade of pesticide damage Grade 1: number of plants at grade 1; for Classification and statistics of the grade of pesticide damage Grade 2: number of plants at grade 2; for Classification and statistics of the grade of pesticide damage Grade 3: number of plants at grade 3; for Classification and statistics of the grade of pesticide damage: Grade 0 / Classification and statistics of the grade of pesticide damage: Grade 1 / Classification and statistics of the grade of pesticide damage: Grade 2 / Classification and statistics of the grade of pesticide damage: Grade 3: number of plants; for Grade 0 (classification and statistics of the grade of pesticide damage; number of plants) / Grade 1 (classification and statistics of the grade of pesticide damage; number of plants) / Grade 2 (classification and statistics of the grade of pesticide damage; number of plants) / Grade 3 (classification and statistics of the grade of pesticide damage; number of plants): 16 plants
# How it was run: (§1)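 Read-out: per-plant damage grade 0–3 from proportion of bleached leaf area at 7 DAT (1 <50%, 2 >50%, 3 100%). Plants were T1 transformants, glufosinate-selected, plus wild-type CK, sprayed 18 days post-sowing. Rates: topramezone 25–200, isoxaflutole 35–280, mesotrione 52.5–420 g ai/ha.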
# [2] = test system: Arabidopsis thaliana T1 plants; experiment: Mesotrione tolerance of transgenic Arabidopsis thaliana T1 plants (spray, bleached leaf area grade, damage score); assay type: in vivo; design: Scores: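 damage score 0-100 computed as Σ(N×S)/(T×M)×100 over grades 0-3 with higher meaning more damage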; conditions: for Classification and statistics of the grade of pesticide damage: Grade 0 / Classification and statistics of the grade of pesticide damage: Grade 1 / Classification and statistics of the grade of pesticide damage: Grade 2 / Classification and statistics of the grade of pesticide damage: Grade 3: number of plants
# How it was run: as §1
# [3] = Table 10, topramezone 100 g ai/ha (4×)
# [4] = Table 10, topramezone 200 g ai/ha (8×)
# [5] = topramezone 100 g ai/ha (4×), 7 DAT, Table 1
# [6] = topramezone 200 g ai/ha (8×), 7 DAT, Table 1
# [7] = topramezone 100 g ai/ha (4x field concentration), Arabidopsis thaliana T1 plants
# [8] = topramezone 200 g ai/ha (8x field concentration), Arabidopsis thaliana T1 plants
# [9] = mesotrione 210 g ai/ha (two-fold field concentration), 7 DAT, Table 3
# [10] = mesotrione 210 g ai/ha, number of plants in grade
# [11] = mesotrione 420 g ai/ha (4×), 7 DAT, Table 3
# [12] = mesotrione 420 g ai/ha, number of plants in grade
molecule,measurement,setting,value
"AsHPPD-02: nucleotide sequence encoding Avena sativa wild-type HPPD; vector DBN11727 (nucleic acid, AsHPPD-02 Nucleotide Sequence, vector DBN11727) DNA: ATGCCACCTACTCCAGCTACAGCTACTGGTGCTGCTGCTGCTGCCGTTACTCCTGAGCACGCTGCCAGGTCATTCCCCAGGGTGGTTCGCGTGAACCCCAGATCTGATAGGTTCCCAGTTCTGAGCTTCCACCATGTTGAGCTGTGGTGCGCTGATGCTGCTTCTGCTGCTGGCAGGTTCTCTTTCGCTCTTGGTGCTCCACTCGCTGCTAGATCTGATCTGTCTACAGGAAATAGCGCTCATGCCTCACTCCTGCTTCGCTCAGGTGCTTTGGCCTTCCTCTTCACCGCTCCATATGCTCCCCCACCTCAGGAGGCTGCTACTGCTGCTGCTACAGCCTCCATTCCAAGCTTCTCAGCTGATGCCGCTAGAACCTTCGCTGCTGCTCATGGACTTGCCGTGAGGTCTGTTGGTGTTCGCGTGGCTGATGCTGCTGAGGCTTTCAGAGTTTCCGTTGCCGGCGGAGCTAGGCCAGCTTTCGCTCCTGCTGATTTGGGACATGGTTTCGGCCTGGCTGAGGTTGAGCTTTACGGTGACGTGGTTCTCCGCTTCGTGTCTTACCCAGATGAGACTGACCTGCCTTTCCTTCCCGGCTTCGAGAGAGTTTCCTCTCCTGGTGCCGTGGATTACGGCCTGACAAGGTTCGACCACGTGGTTGGAAACGTTCCCGAGATGGCTCCAGTGATCGATTACATGAAGGGCTTCCTTGGATTCCATGAGTTCGCCGAGTTCACTGCTGAGGACGTGGGAACCACTGAGTCCGGTTTGAACTCTGTGGTTCTCGCCAACAATTCTGAGGCTGTTTTGCTCCCTCTGAATGAGCCTGTGCATGGAACCAAGAGGAGAAGCCAGATTCAAACTTACCTGGAGTACCACGGTGGCCCTGGAGTTCAGCATATCGCCCTTGCTTCTAATGATGTGTTGCGCACACTCAGAGAGATGCGCGCCAGAACCCCCATGGGAGGTTTCGAGTTCATGGCCCCACCACAGGCTAAGTACTACGAGGGCGTTAGAAGGATTGCTGGAGACGTGTTGAGCGAGGAGCAGATCAAGGAGTGCCAAGAGCTGGGTGTTCTTGTGGATAGGGATGACCAGGGCGTTCTGCTTCAAATTTTCACTAAGCCAGTGGGCGACCGCCCTACATTCTTCCTTGAGATGATTCAAAGAATCGGCTGCATGGAGAAGGATGAGGTTGGACAGGAGTACCAAAAGGGCGGATGCGGTGGCTTCGGAAAGGGTAACTTCAGCGAGTTGTTCAAGTCAATCGAGGACTACGAGAAGAGCCTCGAGGTGAAGCAGTCAGTGGTTGCCCAAAAGTCCTGA",Resistance evaluation,[1]; [3],Non-resistant
same,Classification and statistics of the grade of pesticide damage Grade 0,[1]; [3],0
same,Classification and statistics of the grade of pesticide damage Grade 1,[1]; [3],0
same,Classification and statistics of the grade of pesticide damage Grade 2,[1]; [3],4
same,Classification and statistics of the grade of pesticide damage Grade 3,[1]; [3],12
same,Scores,"[1]; Table 10, topramezone 100 g ai/ha (4×), pesticide damage score",92
same,Resistance evaluation,[1]; [4],Non-resistant
same,Classification and statistics of the grade of pesticide damage Grade 0,[1]; [4],0
same,Classification and statistics of the grade of pesticide damage Grade 1,[1]; [4],0
same,Classification and statistics of the grade of pesticide damage Grade 2,[1]; [4],0
same,Classification and statistics of the grade of pesticide damage Grade 3,[1]; [4],16
same,Scores,"[1]; Table 10, topramezone 200 g ai/ha (8×), pesticide damage score",100
same,tolerance to topramezone (in words),[1]; in vivo,no tolerance
same,Classification and statistics of the grade of pesticide damage: Grade 0,[1]; [5],0
same,Classification and statistics of the grade of pesticide damage: Grade 1,[1]; [5],0
same,Classification and statistics of the grade of pesticide damage: Grade 2,[1]; [5],4
same,Classification and statistics of the grade of pesticide damage: Grade 3,[1]; [5],12
same,Classification and statistics of the grade of pesticide damage: Grade 0,[1]; [6],0
same,Classification and statistics of the grade of pesticide damage: Grade 1,[1]; [6],0
same,Classification and statistics of the grade of pesticide damage: Grade 2,[1]; [6],0
same,Classification and statistics of the grade of pesticide damage: Grade 3,[1]; [6],16
same,Scores,"[1]; pesticide damage score 0-100, topramezone 100 g ai/ha (4×), 7 DAT, Table 1",92
same,Scores,"[1]; pesticide damage score 0-100, topramezone 200 g ai/ha (8×), 7 DAT, Table 1",100
same,Resistance evaluation,[1]; [7],Non-resistant
same,Scores,[1]; [7],92
same,Grade 0 (classification and statistics of the grade of pesticide damage; number of plants),[1]; [7],0
same,Grade 1 (classification and statistics of the grade of pesticide damage; number of plants),[1]; [7],0
same,Grade 2 (classification and statistics of the grade of pesticide damage; number of plants),[1]; [7],4
same,Grade 3 (classification and statistics of the grade of pesticide damage; number of plants),[1]; [7],12
same,Resistance evaluation,[1]; [5],non-resistant (non-resistant plants (scores 68-100))
same,Resistance evaluation,[1]; [8],Non-resistant
same,Scores,[1]; [8],100
same,Grade 0 (classification and statistics of the grade of pesticide damage; number of plants),[1]; [8],0
same,Grade 1 (classification and statistics of the grade of pesticide damage; number of plants),[1]; [8],0
same,Grade 2 (classification and statistics of the grade of pesticide damage; number of plants),[1]; [8],0
same,Grade 3 (classification and statistics of the grade of pesticide damage; number of plants),[1]; [8],16
same,Resistance evaluation,[1]; [6],non-resistant (non-resistant plants (scores 68-100))
same,Resistance evaluation,"[2]; Table 9, mesotrione 210 g ai/ha (2×)",Non-resistant
same,Classification and statistics of the grade of pesticide damage Grade 0,"[2]; Table 9, mesotrione 210 g ai/ha (2×), number of plants at grade 0",0
same,Classification and statistics of the grade of pesticide damage Grade 1,"[2]; Table 9, mesotrione 210 g ai/ha (2×), number of plants at grade 1",0
same,Classification and statistics of the grade of pesticide damage Grade 2,"[2]; Table 9, mesotrione 210 g ai/ha (2×), number of plants at grade 2",0
same,Classification and statistics of the grade of pesticide damage Grade 3,"[2]; Table 9, mesotrione 210 g ai/ha (2×), number of plants at grade 3",16
same,Scores,"[2]; Table 9, mesotrione 210 g ai/ha (2×), pesticide damage score",100
same,Resistance evaluation,"[2]; Table 9, mesotrione 420 g ai/ha (4×)",Non-resistant
same,Classification and statistics of the grade of pesticide damage Grade 0,"[2]; Table 9, mesotrione 420 g ai/ha (4×), number of plants at grade 0",0
same,Classification and statistics of the grade of pesticide damage Grade 1,"[2]; Table 9, mesotrione 420 g ai/ha (4×), number of plants at grade 1",0
same,Classification and statistics of the grade of pesticide damage Grade 2,"[2]; Table 9, mesotrione 420 g ai/ha (4×), number of plants at grade 2",0
same,Classification and statistics of the grade of pesticide damage Grade 3,"[2]; Table 9, mesotrione 420 g ai/ha (4×), number of plants at grade 3",16
same,Scores,"[2]; Table 9, mesotrione 420 g ai/ha (4×), pesticide damage score",100
same,Resistance evaluation,"[2]; Table 12, mesotrione 210 g ai/ha (2×)",Non-resistant
same,Classification and statistics of the grade of pesticide damage Grade 0,"[2]; Table 12, mesotrione 210 g ai/ha (2×), number of plants at grade 0",0
same,Classification and statistics of the grade of pesticide damage Grade 1,"[2]; Table 12, mesotrione 210 g ai/ha (2×), number of plants at grade 1",0
same,Classification and statistics of the grade of pesticide damage Grade 2,"[2]; Table 12, mesotrione 210 g ai/ha (2×), number of plants at grade 2",0
same,Classification and statistics of the grade of pesticide damage Grade 3,"[2]; Table 12, mesotrione 210 g ai/ha (2×), number of plants at grade 3",16
same,Scores,"[2]; Table 12, mesotrione 210 g ai/ha (2×), pesticide damage score",100
same,Resistance evaluation,"[2]; Table 12, mesotrione 420 g ai/ha (4×)",Non-resistant
same,Classification and statistics of the grade of pesticide damage Grade 0,"[2]; Table 12, mesotrione 420 g ai/ha (4×), number of plants at grade 0",0
same,Classification and statistics of the grade of pesticide damage Grade 1,"[2]; Table 12, mesotrione 420 g ai/ha (4×), number of plants at grade 1",0
same,Classification and statistics of the grade of pesticide damage Grade 2,"[2]; Table 12, mesotrione 420 g ai/ha (4×), number of plants at grade 2",0
same,Classification and statistics of the grade of pesticide damage Grade 3,"[2]; Table 12, mesotrione 420 g ai/ha (4×), number of plants at grade 3",16
same,Scores,"[2]; Table 12, mesotrione 420 g ai/ha (4×), pesticide damage score",100
same,tolerance to mesotrione (in words),[2]; in vivo,no tolerance
same,Resistance evaluation,[2]; mesotrione 210 g ai/ha,Non-resistant
same,Scores,[2]; mesotrione 210 g ai/ha,100
same,Resistance evaluation,[2]; [9],non-resistant (non-resistant plants (scores 68-100))
same,Classification and statistics of the grade of pesticide damage Grade 0,[2]; [10],0
same,Classification and statistics of the grade of pesticide damage Grade 1,[2]; [10],0
same,Classification and statistics of the grade of pesticide damage Grade 2,[2]; [10],0
same,Classification and statistics of the grade of pesticide damage Grade 3,[2]; [10],16
same,Resistance evaluation,[2]; mesotrione 420 g ai/ha,Non-resistant
same,Scores,[2]; mesotrione 420 g ai/ha,100
same,Resistance evaluation,[2]; [11],non-resistant (non-resistant plants (scores 68-100))
same,Classification and statistics of the grade of pesticide damage Grade 0,[2]; [12],0
same,Classification and statistics of the grade of pesticide damage Grade 1,[2]; [12],0
same,Classification and statistics of the grade of pesticide damage Grade 2,[2]; [12],0
same,Classification and statistics of the grade of pesticide damage Grade 3,[2]; [12],16
same,Classification and statistics of the grade of pesticide damage: Grade 0,[2]; [9],0
same,Classification and statistics of the grade of pesticide damage: Grade 1,[2]; [9],0
same,Classification and statistics of the grade of pesticide damage: Grade 2,[2]; [9],0
same,Classification and statistics of the grade of pesticide damage: Grade 3,[2]; [9],16
same,Classification and statistics of the grade of pesticide damage: Grade 0,[2]; [11],0
same,Classification and statistics of the grade of pesticide damage: Grade 1,[2]; [11],0
same,Classification and statistics of the grade of pesticide damage: Grade 2,[2]; [11],0
same,Classification and statistics of the grade of pesticide damage: Grade 3,[2]; [11],16
same,Scores,"[2]; pesticide damage score 0-100, mesotrione 210 g ai/ha (two-fold field concentration), 7 DAT, Table 3",100
same,Scores,"[2]; pesticide damage score 0-100, mesotrione 420 g ai/ha (4×), 7 DAT, Table 3",100
